# Values of other authors, collected in publication PMC9437947.
# Molecular target: Lys166 (UniProt position 166, RAVKTKIGYPA)
# Test: kinetics
# Conditions: H297N mutant turning over S-mandelate in the exchange reaction
substance,measurement,value
Mandelate racemase H297N mutant (Pseudomonas putida (inferred; organism not stated in the article); H297N),pKa,~ 6
